Source: publication PMC12658140 (Nature Communications, 2025)

Key:
[1] = biological target: H3N2 A/Moscow/10/1999 HA on infected MDCK-SIAT1 cells (Influenza A virus H3N2 A/Moscow/10/1999, UniProt I6SI59, strain); test: flow cytometry on cells; conditions: one partner purified
[2] = biological target: H14N5 A/mallard/Astrakhan/263/1982 HA protein (Influenza A virus H14N5 …, UniProt P26136, strain); test: ELISA; conditions: both partners purified
[3] = biological target: T1, H3N2 A/Hong Kong/1/1968 HA protein (Influenza A virus H3N2 A/Hong …, UniProt Q91MA7, strain); test: ELISA; conditions: both partners purified
T1 construct: source: bought: SinoBiological

Row | Binder | binding result [1] | binding result [2] | binding result [3]
1 | AG2-G02 IgG (antibody, V domains shown, copies: 2 + 2) VH: VQLVQSGAEMKKPGASVKVSCKASGYTFSAYYIHWVRQAPGQGLEWMGRINTDSGGTNFAQQFEGRVTMTRDTSISTAYMELSSLRSDDTAVYYCARGYDFWLGSYRAGGWFDPWGQGTLVTVSS VL: not shown | binds | no binding (tested: 10 μg mL^−1) | –
2 | 240-14 IgA 2F02 IgG (antibody, V domains shown, source: Expi293F, transfected, purified (CaptureSelect CH1-XL beads); copies: 2 + 2) VH: EVQLLESGGGLVQPGGSLRLSCAASGFTFSTYAMSWVRQAPGKGLEWVSTISGSGGSTYDAESVKGRFTISRDNSKNTLYLQMNSLRAEDTAVYYCAKEGGDFWSGYYANWFDPWGQGTLVTVSS VL: QSALTQPRSVSGSPGQSVTISCTGTRSDVGGYNYVSWYQQHPGKAPKVIIYDVKKRPSGVPDRFSGSKSGNTASLTISGLQAEDEADYYCSAFAGSHTLFGGGTKVTVL | binds | – | binds
